Experimental findings from PMC11142304 are described below.

pKd: −log10 of the molar value.

What is called stoichiometry N is a count of units in the complex or per binding partner. What is called pKd is the negative decadic logarithm of the Kd, by convention in mol/L. Read a high pKd as a small Kd.

For assay [1], the target named is LnaB (recombinant, ITC and AUC) (L. pneumophila). Nature of the assay: ITC. On the technique in general: ITC needs no label: the signal is the heat of the interaction.
In assay [2] the target is ADP-ribosylated ubiquitin (ADPR-Ub) (UniProt P0CG48). Nature of the assay: ITC.

Turning to “Actin (Sangon Biotech, A001041) (from UniProt P60709 1-375) (natural protein)”, in assay [1], the stoichiometry N was determined as 0.84.

With MavL_N322A, the negative-log Kd (pKd) in assay [2] was 5.22.
